The text below walks through data of publication PMC11464717, “Structural basis for antibiotic transport and inhibition in PepT2” (Nature Communications, 2024).

This assay has as its target T1, PepT2 (SLC15A2) from Rattus norvegicus (Rattus norvegicus, UniProt Q63424).
T1 construct: Proton-coupled peptide transporter PepT2 (SLC15A2), Rattus norvegicus; The extracellular domain is in the protein but was not built in the deposited models; also called rat PepT2; ratPepT2; source: HEK293F, transfected, purified (nickel NTA, TEV cleavage, SEC) in DDM:CHS; also reconstituted into POPE:POPG liposomes; not shown: GFP, C-terminal, cleaved; His tag, C-terminal, cleaved
Kind of assay: cryo-EM structure; PepT2 after size exclusion (DDM:CHS) mixed with 1 mM antibiotic (cefadroxil, amoxicillin or cloxacillin) for one hour, then 1.2 molar excess of nanobody D8, on ice for at least 30 min; PepT2 at 5-6 mg/mL. To be noted: both partners purified. A general note: In gel filtration, larger molecules generally elute earlier.

B1: nanobody (D8) (VHH)
VHH: QVQLVESGGGLVQPGGSLRLLCVASGRPFNDYDMGWFRQAPGKEREFVASISWSGRVTDYSDSMKGRCTVSRDNAKGTMFLQMSNLVPRDTAVYYCAAARRRWTFKATNTEEFYETWGQGTQVTVSS
notes: The nanobody was in the complexes solved here (PDB 9BIR, 9BIS, 9BIT, 9BIU); Its expression plasmid is deposited at Addgene; also called the nanobody
In the case of B1, the binding result was “binds”.
